Ten substances from patent publication US20250320281A1 can be followed below.

A value given as a limit tells only on which side of the number the result lay.

Assay in all cases: cell-based or functional assay
For test [1], the target named is HIV-1 envelope glycoprotein (Env) of isolate MGRM-A-010, clade A (HIV-1).
For test [2], the target named is HIV-1 envelope glycoprotein (Env) of isolate MGRM-A-002, clade A (HIV-1).
Test [3] addresses HIV-1 Env of isolate 98IN022 (clade C) (HIV-1 isolate 98IN022).
The target in test [4] is HIV-1 Env of isolate APV_6, clade B, on pseudovirus (HIV-1).
Test [5] concerns the target HIV-1 Env of pseudovirus MGRM-AG-008 (clade CRF_AG) (HIV-1).
Test [6] deals with HIV-1 Env of pseudovirus MGRM-G-019 (HIV-1, clade G isolate MGRM-G-019).
For test [7], the target named is HIV-1 Env of isolate MGRM-D-003 (clade D pseudovirus) (HIV-1).
The target of test [8] is HIV-1 Env of pseudovirus MGRM-AE-003 (clade CRF01_AE) (HIV-1).
In test [9] the target is HIV-1 Env of pseudovirus MGRM-F1-021 (HIV-1).
The target in test [10] is HIV-1 Env of pseudovirus MGRM-F1-018 (HIV-1).
Test [11] has as its target HIV-1 Env of pseudovirus MGRM-F1-023 (HIV-1).
The target of test [12] is HIV-1 Env of isolate 92UG024 (clade D pseudovirus) (HIV-1).
The target in test [13] is HIV-1 Env of isolate MGRM-D-004 (clade D pseudovirus) (HIV-1).
The target of test [14] is aMLV envelope (pseudovirus, negative control).
Test [15] has as its target HIV-1 92RW020 Env (pseudovirus, clade A) (HIV-1).
Test [16] deals with HIV-1 Env of isolate MGRM-AE-007 (HIV-1).
In test [17] the target is HIV-1 APV17 Env (pseudovirus) (HIV-1).
Test [18] deals with HIV-1 Env of isolate MGRM-Chronic-B-003 (subtype B pseudovirus) (HIV-1).
Test [19] concerns the target HIV-1 Env of isolate MGRM-AE-008 (HIV-1).
Test [20] addresses HIV-1 Env of isolate MGRM-D-024 (pseudovirus) (HIV-1).
Test [21] addresses HIV-1 Env of isolate MGRM-Chronic-B-004 (subtype B pseudovirus) (HIV-1).
The target of test [22] is HIV-1 Env of isolate MGRM-F1-021 (HIV-1).
In test [23] the target is HIV-1 Env of isolate MGRM-D-001 (pseudovirus) (HIV-1).
Test [24] addresses HIV-1 Env of isolate MGRM-F1-004 (pseudovirus) (HIV-1).
The target in test [25] is HIV-1 Env of isolate MGRM-D-004 (pseudovirus) (HIV-1).
The target of test [26] is HIV-1 Env of isolate NL43 (subtype B pseudovirus) (HIV-1).
For test [27], the target named is HIV-1 Env of isolate 97ZA012 (HIV-1).
Test [28] has as its target HIV-1 Env of isolate MGRM-D-020 (pseudovirus) (HIV-1).
Test [29] addresses HIV-1 Env of isolate MGRM-D-014 (pseudovirus) (HIV-1).
The target in test [30] is HIV-1 Env of isolate APV_13 (subtype B pseudovirus) (HIV-1).
In test [31] the target is HIV-1 Env of isolate MGRM-AG-009 (HIV-1).

1443_C16 (PG16) (TCN-116) (antibody), sequence (VH): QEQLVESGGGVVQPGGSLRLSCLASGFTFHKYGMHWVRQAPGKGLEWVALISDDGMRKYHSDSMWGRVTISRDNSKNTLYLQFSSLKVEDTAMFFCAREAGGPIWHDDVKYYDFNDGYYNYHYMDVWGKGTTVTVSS
1443_C16 (PG16) (TCN-116) (antibody), sequence (VL): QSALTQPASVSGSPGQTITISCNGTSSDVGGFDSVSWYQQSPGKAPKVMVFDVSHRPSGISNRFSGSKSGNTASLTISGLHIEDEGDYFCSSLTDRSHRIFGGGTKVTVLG

By IC50 is commonly meant the midpoint of a concentration-inhibition curve. Regarding 2F5 (antibody), the IC50 (µg/ml), pseudovirus neutralization in test [1] is 20.8 µg/mL; in test [2], over 50 µg/mL; in test [3], over 50 µg/mL; in test [4] it was 0.25 µg/mL; in test [6], over 50 µg/mL; in [7], over 50 µg/mL. The IC50 (µg/ml), pseudovirus neutralization was found to be 1.37 µg/mL in [9]; 3.91 µg/mL in test [10]; 1.78 µg/mL in [11]; 0.95 µg/mL in [12]; 2.3 µg/mL in test [13]. Also, the IC50 amounted to 0.54 µg/mL in test [5] and 0.24 µg/mL in [8].

2G12 (antibody): the IC50 (µg/ml), pseudovirus neutralization in test [1] was 17 µg/mL; in [2], over 50 µg/mL; in [3] it was over 50 µg/mL; in test [4], 1.9 µg/mL; in [6], 31 µg/mL; in [7] it was over 50 µg/mL. Further, the IC50 (µg/ml), pseudovirus neutralization was 14.1 µg/mL in [9]; over 50 µg/mL in test [10]; 9.23 µg/mL in test [11]; 0.42 µg/mL in test [12]; over 50 µg/mL in [13]. The IC50 in test [5] and in test [8] was over 50 µg/mL throughout.

As to 4E10 (antibody), the IC50 (µg/ml), pseudovirus neutralization in [1] turned out to be 14.4 µg/mL; in test [2], 6.45 µg/mL; in test [3], 0.53 µg/mL; in [4] it was 1.1 µg/mL; in test [6], 6.53 µg/mL; in test [7], 2.49 µg/mL. The IC50 (µg/ml), pseudovirus neutralization in [9] was 1.87 µg/mL; in [10] it was 3.6 µg/mL; in test [11] it was 0.44 µg/mL; in test [12] it was 2.17 µg/mL; in test [13] it was 1.58 µg/mL. The IC50 in [5] was determined as 1.48 µg/mL; in test [8], 0.34 µg/mL.

Regarding 1443_C16 (PG16) (TCN-116) (antibody), the IC50 (µg/ml), pseudovirus neutralization in test [1] is 0.004 µg/mL; in test [2], 0.004 µg/mL; in test [3], 0.003 µg/mL; in test [4], 0.29 µg/mL; in test [6] it was 1.21 µg/mL; in test [7], 0.01 µg/mL. Further, the IC50 (µg/ml), pseudovirus neutralization is over 50 µg/mL in test [9]; 0.01 µg/mL in [10]; over 50 µg/mL in [11]; 24 µg/mL in test [12]; 0.01 µg/mL in test [13]. For the same substance, the IC50 in test [5] was found to be 0.002 µg/mL; in [8], 0.03 µg/mL.

As to 1495_C14 (PGC14) (antibody), the IC50 (µg/ml), pseudovirus neutralization is over 50 µg/mL in test [1]; over 50 µg/mL in test [2]; 9 µg/mL in [3]; 23 µg/mL in [4]; over 50 µg/mL in test [6]; over 50 µg/mL in test [7]. Further, the IC50 (µg/ml), pseudovirus neutralization in test [9] was 46 µg/mL; in test [10], over 50 µg/mL; in test [11], over 50 µg/mL; in test [12], over 50 µg/mL; in test [13], over 50 µg/mL. In addition, the IC50 in [5] was 45 µg/mL; in test [8], over 50 µg/mL.

As for 4858_P08 (PGT-123) (antibody), the neutralization IC50 (pseudovirus) is over 10 µg/mL in test [14] and 0.18 µg/mL in test [17]. The substance also had an IC50 neutralization in [15] of 0.0038 µg/mL. The figures for the IC50 in test [16], in [19] and in [31] were over 50 µg/mL, over 50 µg/mL and 0.073 µg/mL, respectively. Moreover, the IC50 (µg/mL), pseudovirus neutralization in test [18] was 0.008 µg/mL; in test [21], 0.008 µg/mL; in test [22], 0.307 µg/mL; in test [26], over 50 µg/mL; in test [30], 0.138 µg/mL. Further, the IC50, pseudovirus neutralization in test [20] was 0.023 µg/mL; in test [23], 0.147 µg/mL; in [24], 1.78 µg/mL; in test [25], over 50 µg/mL; in test [28], 0.018 µg/mL; in [29], 0.009 µg/mL. Further, the neutralization IC50 in [27] is 0.002 µg/mL.

Regarding 4877_D15 (PGT-122) (antibody), the results for the neutralization IC50 (pseudovirus) in test [14] and in [17] were over 10 µg/mL and 0.522 µg/mL, respectively. In addition, the IC50 neutralization in test [15] was found to be 0.0072 µg/mL. In addition, the IC50 in [16] was over 50 µg/mL; in [19], over 50 µg/mL; in test [31], 0.128 µg/mL. Moreover, the IC50 (µg/mL), pseudovirus neutralization was 0.008 µg/mL in test [18]; 0.008 µg/mL in [21]; 2.3 µg/mL in test [22]; over 50 µg/mL in test [26]; 0.778 µg/mL in test [30]. For the same substance, the IC50, pseudovirus neutralization was 0.185 µg/mL in test [20]; 1.13 µg/mL in test [23]; 1.29 µg/mL in test [24]; over 50 µg/mL in [25]; 0.007 µg/mL in test [28]; 0.012 µg/mL in test [29]. Also, in [27], the neutralization IC50 stood at 0.004 µg/mL.

For 5123_A06 (PGT-125) (antibody), the neutralization IC50 (pseudovirus) is over 10 µg/mL in test [14] and 7.31 µg/mL in test [17]. Besides, the IC50 neutralization in test [15] came out at 0.0028 µg/mL. For the same substance, the IC50 is 0.876 µg/mL in test [16], over 50 µg/mL in [19] and 0.026 µg/mL in test [31]. For the same substance, the IC50 (µg/mL), pseudovirus neutralization in test [18] is 0.157 µg/mL; in test [21], 0.007 µg/mL; in test [22], over 50 µg/mL; in [26], over 50 µg/mL; in test [30], 0.007 µg/mL. The IC50, pseudovirus neutralization is over 50 µg/mL in test [20]; 2.84 µg/mL in test [23]; over 50 µg/mL in test [24]; 0.371 µg/mL in [25]; over 50 µg/mL in [28]; over 50 µg/mL in [29]. The same substance displayed a neutralization IC50 in test [27] of 2.46 µg/mL.

For the substance 5141_B17 (PGT-126) (antibody), the neutralization IC50 (pseudovirus) is over 10 µg/mL in test [14] and 0.501 µg/mL in test [17]. The substance further had an IC50 neutralization in test [15] of 0.0046 µg/mL. Also, the IC50 in [16] is over 50 µg/mL; in [19], over 50 µg/mL; in test [31], 0.03 µg/mL. In addition, the IC50 (µg/mL), pseudovirus neutralization in [18] was 0.041 µg/mL; in test [21], 0.01 µg/mL; in test [22] it was over 50 µg/mL; in test [26] it was over 50 µg/mL; in test [30], 0.012 µg/mL. Further, the IC50, pseudovirus neutralization is 0.376 µg/mL in test [20]; 0.084 µg/mL in test [23]; 0.063 µg/mL in test [24]; over 50 µg/mL in test [25]; 0.023 µg/mL in [28]; 0.03 µg/mL in test [29]. This substance also yielded a neutralization IC50 in [27] of 0.042 µg/mL.

Turning to b12 (antibody), the IC50 (µg/ml), pseudovirus neutralization in [1] was over 50 µg/mL; in test [2], over 50 µg/mL; in [3] it was 0.42 µg/mL; in test [4], over 50 µg/mL; in test [6], 3.77 µg/mL; in test [7], over 50 µg/mL. Further, the IC50 (µg/ml), pseudovirus neutralization in [9] was over 50 µg/mL; in test [10] it was over 50 µg/mL; in test [11] it was over 50 µg/mL; in test [12], 45.6 µg/mL; in [13], over 50 µg/mL. Further, the IC50 in [5] and in test [8] was over 50 µg/mL each time.
